Reference: patent publication US20240409645A1 (DUALYX, published 2024)

T1: human IL-2Rα (human, UniProt P01589 22-240, limits assumed)
T1 construct: recombinant protein; also called hu IL-2R; human IL-2Ra
T1 sequence: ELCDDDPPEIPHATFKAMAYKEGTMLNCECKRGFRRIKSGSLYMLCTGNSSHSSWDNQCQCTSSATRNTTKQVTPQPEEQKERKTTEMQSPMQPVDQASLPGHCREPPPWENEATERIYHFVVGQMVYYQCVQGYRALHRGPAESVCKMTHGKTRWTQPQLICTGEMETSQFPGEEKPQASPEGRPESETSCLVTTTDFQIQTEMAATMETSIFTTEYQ

B1: FJ1427_P035MP01F06 (VHH)
VHH: QLQLVESGGGLVQAGGSLRLSCAASGGAFSRYAVGWFRMAPGKGREFVSAIDLSGTNTHVLDSVKGRFTISRDNDKNTAYLQMDKLQPEDTAVYWCAATSSSYSDYEANYNIWGQGTQVTVSS
notes: periplasmic extract; also called clone nr; 46
B2: FJ1427_P035MP01H02 (VHH)
VHH: QLQLVESGGGLVQAGDSLRLSCAASGRAFSRYAVGWFRMAPGKGREFVSAINSSGANTYVLDSVKGRFTISRDNDKNTAYLQMDSLQPEDTAVYWCAATSSSYSTYEANYNVWGQGTQVTVSS
notes: periplasmic extract; also called clone nr; 16
B3: FJ1427_P035MP01G10 (VHH)
VHH: EVQLVESGGGLVQAGGSLRLSCAASGGAFSRYAVGWFRMAPGKGREFVSAIDLSGTNTHVLDSVKGRFTISRDNDKNTAYLQMDKLQPEDTAVYWCAATSSSYSDYEANYNIWGQGTQVTVSS
notes: periplasmic extract; also called clone nr; 79
B4: FJ1427_P035MP01E07 (VHH)
VHH: QVQLQESGGGLVQAGDSLRLSCAASGRSFRNYILAWYRQAPGKEREFLAAISWLEGTLYADSVEDRFTISRDNPKNTVHLQMDSLKPEDTAVYYCAADRGPVRPVLAPDVDYWGQGTQVTVSS
notes: periplasmic extract; also called clone nr; 53
B5: FJ1427_P035MP01F11 (VHH)
VHH: QVQLQESGGGLVQAGDSLRLSCAASGRSFRNYILAWYRQAPGKEREFLAAISWLDGTLYADSVEDRFTISRDNPKNTVHLQMDSLKPEDTAVYYCAADRGPVRPVLAPDVDYWGQGTQVTVSS
notes: periplasmic extract; also called clone nr; 86
B6: FJ1427_P035MP01G07 (VHH)
VHH: QVQLVESGGGLVQTGDSLRLSCAASGRSFRNYILAWYRQAPGKEREFLAAISWLDGTLYADSVEGRFTISRDNPKNTVHLQMDSLKPEDTAVYYCAADRGPVRPVLAPDVDYWGQGTQVTVSS
notes: periplasmic extract; also called clone nr; 55
B7: FJ1427_P035MP01F07 (VHH)
VHH: QVQLVESGGGLVQAGGSLRLSCAATGLTFRQHNMGWFRRAPGKEREFVAAISWNVGSTYFADSVKGRFTISRDNGKNMVYLQMNSLKPEDTAVYYCAADNIPLASDMRATATAYGYWGQGTQVTVSS
notes: periplasmic extract; also called clone nr; 54
B8: FJ1427_P035MP01F02 (VHH)
VHH: QVQLQESGGGLVQAGGSLRLSCAASGRTFRTHNMGWFRRAPGKEREFVAAISWNIDNKLYADSVKGRSTISRDNGGNMVFLQMNSLKPEDTAVYYCAADKIPLSSDVAATATEYDDWGQGTQVTVSS
notes: periplasmic extract; also called clone nr; 14
B9: FJ1427_P035MP01E12 (VHH)
VHH: QVQLVESGGGLVQAGGSLRLSCAASGITFNDHTMAWFRQAPGKEREFVAARDWSDIITRYASSVKGRFTISRDNAGNTGFLQMNSLRPEDTAVYYCAAREGGVVAGVRSGAPYDYWGQGTQVTVSS
notes: periplasmic extract; also called clone nr; 93
B10: FJ1427_P035MP01F08 (VHH)
VHH: EVQLVESGGGWVQPGDSLRLSCAASGRSFRNYVMGWFRQVPGKEREFLSVITSLGGTLDADSVADRFTISRDNSKNTVYLQMDSLKPEDTAVYYCAADRGPARYISASDVDYWGQGTQVTVSS
notes: periplasmic extract; also called clone nr; 62
B11: FJ1427_P035MP01D04 (VHH)
VHH: QVQLVESGGGWVQPGDSLRLSCAASGRSFRNYVMGWFRQVPGKEREFLSVITWLGGTLDADSVADRFTISRDNSKNTVYLQMDSLKPEDTAVYYCAADRGPARYISASDVDYWGQGTQVTVSS
notes: periplasmic extract; also called clone nr; 28
B12: FJ1427_P035MP01B01 (VHH)
VHH: EVQLVESGGGWVQAGDSLRLSCAASGRTFRNYVMGWFRQVPGKEREFLSVITSLGGTVYADSVANRFTISRDNPKDTVYLQMDSLKPEDTAVYYCAADRGPARYISASDVDYWGQGTQVTASS
notes: periplasmic extract; also called clone nr

Key:
human IL-2Rα [1] = molecular target: T1, human IL-2Rα; experiment: ELISA, P.E. on coated antigen
Description: In a binding ELISA, human or mouse IL-2Rα, IL-2Rβ and IL-2Rγ proteins were coated directly on maxisorp microtiter plates overnight at 4° C. Free binding sites were blocked using 4% Marvel in PBS for 1 hour. Next, 1:5 dilution of P.E. in 1% Marvel/PBS were added to wells and incubated for 1 hour. […] Binding specificity was determined based on O.D. at 450 nm values compared to negative controls.

human IL-2Rα [2] = molecular target: T1, human IL-2Rα; experiment: SPR, P.E. on immobilised antigen
Description: SPR was performed to determine dissociation rates using Biacore 3000 instrument (GE Healthcare). Briefly, human and mouse IL-2R proteins were immobilized on carboxylmethyl dextran sensor chip (CM5) at approximately 2500 RUs using amine coupling in acetate buffer (GE Healthcare). The VHH-containing P.E. were loaded with a flow rate of 30 uL/min and the off-rates were measured over a 120s period.

| Binder | OD (PE binding ELISA) (human IL-2Rα [1]) [OD450 nm] | koff (human IL-2Rα [2]) [s⁻¹] |
| --- | --- | --- |
| B1 | 2.71 | 0.000526 |
| B2 | 2.35 | 0.00115 |
| B3 | 2.75 | 0.000443 |
| B4 | 2.73 | 0.00159 |
| B5 | 2.74 | 0.00118 |
| B6 | 2.75 | 0.0015 |
| B7 | 2.76 | 0.00067 |
| B8 | 2.5 | 0.00391 |
| B9 | 2.69 | 0.000141 |
| B10 | 2.71 | 0.00162 |
| B11 | 2.76 | 0.00295 |
| B12 | 2.78 | 0.00178 |
